According to patent US20210238283A1 (Y BIOLOGICS, published 2021):
Numbering of substitutions follows the chain as printed.

T1: recombinant human LAG-3-his (#16498-H08H, Sino Biological Inc.) (human, UniProt P18627 23-450)
T1 construct: Bought; also called LAG-3-His (WT); not shown: His tag at the carboxy terminal
T1 sequence (looked up): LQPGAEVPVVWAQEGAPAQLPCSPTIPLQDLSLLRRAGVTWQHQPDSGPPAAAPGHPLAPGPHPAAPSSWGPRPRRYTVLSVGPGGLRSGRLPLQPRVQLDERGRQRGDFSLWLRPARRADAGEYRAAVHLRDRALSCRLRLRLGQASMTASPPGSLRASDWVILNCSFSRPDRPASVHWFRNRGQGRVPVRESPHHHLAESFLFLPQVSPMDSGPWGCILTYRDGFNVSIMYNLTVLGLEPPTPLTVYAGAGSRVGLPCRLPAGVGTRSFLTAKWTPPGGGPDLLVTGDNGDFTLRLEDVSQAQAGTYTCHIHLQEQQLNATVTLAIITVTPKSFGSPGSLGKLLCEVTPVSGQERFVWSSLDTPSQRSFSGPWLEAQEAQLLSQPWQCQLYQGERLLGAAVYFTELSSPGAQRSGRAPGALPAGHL

T2: mouse LAG-3 overexpressed on HEK293E cells (mouse, UniProt Q61790 24-521)
T2 construct: whole, on cells; also called HEK293E-mLAG3; mLAG3 (Mouse)
T2 sequence (looked up): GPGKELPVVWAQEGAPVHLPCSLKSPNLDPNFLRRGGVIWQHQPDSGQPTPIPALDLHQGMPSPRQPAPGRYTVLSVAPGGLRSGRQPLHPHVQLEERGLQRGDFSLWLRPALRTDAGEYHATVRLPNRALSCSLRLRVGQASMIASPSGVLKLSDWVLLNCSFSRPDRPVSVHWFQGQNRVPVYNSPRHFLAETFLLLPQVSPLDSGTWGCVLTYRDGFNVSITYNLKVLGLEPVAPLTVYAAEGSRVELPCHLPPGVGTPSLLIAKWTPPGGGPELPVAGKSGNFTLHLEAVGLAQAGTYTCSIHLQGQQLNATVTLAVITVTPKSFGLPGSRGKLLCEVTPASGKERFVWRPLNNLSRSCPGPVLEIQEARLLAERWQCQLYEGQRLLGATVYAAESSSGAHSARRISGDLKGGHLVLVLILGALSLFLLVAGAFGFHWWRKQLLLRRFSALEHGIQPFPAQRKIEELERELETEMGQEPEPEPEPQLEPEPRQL

T3: human LAG-3 overexpressed on cells (human, UniProt P18627 23-525)
T3 construct: whole, on cells; also called HEK293E-hLAG3; hLAG3 (Human)
T3 sequence (looked up): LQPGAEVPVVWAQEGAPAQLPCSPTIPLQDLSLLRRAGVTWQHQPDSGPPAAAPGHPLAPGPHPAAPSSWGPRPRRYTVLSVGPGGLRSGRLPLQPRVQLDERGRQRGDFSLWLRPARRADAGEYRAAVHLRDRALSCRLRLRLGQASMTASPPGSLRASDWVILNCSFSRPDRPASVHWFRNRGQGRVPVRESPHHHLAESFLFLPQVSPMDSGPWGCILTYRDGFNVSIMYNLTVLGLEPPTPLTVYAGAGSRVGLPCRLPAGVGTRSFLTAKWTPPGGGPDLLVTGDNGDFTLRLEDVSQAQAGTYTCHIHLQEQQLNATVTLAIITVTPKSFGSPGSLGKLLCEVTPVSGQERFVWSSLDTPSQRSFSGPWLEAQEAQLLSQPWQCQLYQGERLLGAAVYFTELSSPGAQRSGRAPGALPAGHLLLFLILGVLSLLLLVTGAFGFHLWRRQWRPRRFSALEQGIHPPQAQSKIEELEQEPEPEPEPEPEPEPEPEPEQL

B1: LAG3-1E09_FR_1E10 (antibody, V domains shown)
VH: EVQLVESGGGLVKPGGSLRLSCAASGFSFSDHYMNWVRQAPGKGLEWVAYIDTSATYIYYADSVKGRFTISRDNAKNSLYLQMNSLRAEDTAVYYCARDNWGSLDYWGQGTLVTVSS
VL: DIQMTQSPSSLSASVGDRVIITCQASQDITNYLNWYQQKPGKAPKLLIYDASNLETGVPSRFTGSGSGTDFTFTISSLQPEDIATYHCQQSYSTPPYTFGQGTKLEIK
notes: Tested as full IgG
B2: LAG3-1E09_FR_1E09 (antibody, V domains shown)
VH: B1 VH with V37I
VL: DIQMTQSPSSLSASVGDRVTITCQASQDISNYLNWYQQKPGKAPNLLIYDASNLETGVPSRFSGSGSGTDFALTISSLQPEDFATYYCQQSDSTPITFGQGTRLDIK
notes: Tested as full IgG
B3: LAG3-1E09_CDR_1D04 (antibody, V domains shown)
VH: B1 VH with G10D, V37I
VL: B2 VL with A72T, D92Y, S93I, I96Y, R103K
notes: Tested as full IgG
B4: LAG3-1E09_AM_2E09 (antibody, V domains shown)
VH: B1 VH with G10D, S54N
VL: DIQMTQSSSSLSASVGDRVTITCQASQDITDFLNWYQQKPGKAPKLLIYDASNLETGIPSRFSGSGSGREFTLTINSLQPEDVASYYCQQSYTTPLTFGGGTKVDIK
notes: Tested as full IgG
B5: LAG3-1E09_FR_1F03 (antibody, V domains shown)
VH: B1 VH with V37I
VL: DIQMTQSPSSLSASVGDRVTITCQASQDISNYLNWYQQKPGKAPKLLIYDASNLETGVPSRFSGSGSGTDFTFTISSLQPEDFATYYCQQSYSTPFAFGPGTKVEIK
notes: Tested as full IgG
B6: LAG3-1E09_CDR_1E03 (antibody, V domains shown)
VH: B1 VH with G10D, S28T, S30N, V37I, S54T
VL: DIQMTQSLSSLSASVGDSVTITCQASQDISNYLNWYRQKPGKAPELLIYDTSNLETGVPSRFSGSGSGTDFTLTISSLQPEDFATYYCQQSYSIPYTFGQGTKVEIK
notes: Tested as full IgG
B7: LAG3-1E09_AM_2G11 (antibody, V domains shown)
VH: B1 VH with G10D, S30T
VL: DIQMTQSPSSLSASVGDRVTITCRASQSISYYLNWYQQRPGKAPKLLIYDASNLETGVPSRFSGSGTGTEFTLTISSLQPEDFATYYCQQSYSTPFAFGPGTKVEIK
notes: Tested as full IgG
B8: LAG3-1E09_FR_1A10 (antibody, V domains shown)
VH: B1 VH with V37I
VL: DIQMTQSPSSLSASVGDRVTITCQANQDISNYLNWYQQKPGKAPKLLIYDASNLETGVPSRFSGGGSGTDFTLTINNLQPEDFATYYCHHSYNTPITFGQGTRLEIK
notes: Tested as full IgG
B9: LAG3-1E09_AM_2H06 (antibody, V domains shown)
VH: B1 VH with G10D, S28T, S54I
VL: B2 VL with K39T, N45K, A72T, S91G, D92Y, S93G, I96Y, F98Y, R103K, D105E
notes: Tested as full IgG
B10: LAG3-1E09_LS_1G11 (antibody, V domains shown)
VH: B1 VH with G10D, K13Q, S28N, S54T
VL: B2 VL with S30D, N31K, N45K, A72T, D92Y, I96N, R103K
notes: Tested as full IgG
B11: LAG3-1E09_LS_1E06 (antibody, V domains shown)
VH: B1 VH with G10D, V37I
VL: B6 VL with L8P, S18R, N31H, E45K, T51A, D70L, I94T, V104L
notes: Tested as full IgG
B12: LAG3-1E09_FR_1G07 (antibody, V domains shown)
VH: B1 VH
VL: DIQMTQSPSSLSASVGDRVTITCRASQGISTYLNWYQQKPGKAPKLLIYDASNLETGVPSRFSGSGSGTDFTLTISGLQPDDFALYYCQQSYTTPYSFGPGTKVEIK
notes: Tested as full IgG
B13: LAG3-1E09_AM_1E09 (antibody, V domains shown)
VH: B1 VH with G10D, V37I
VL: DIQMTQSPATLSVSPGERATLSCRASQSVMNNLAWYQQKPGQAPRLLIYDASNRATGIPARFSGSGSGTDFTLTISRLEPEDFAVYYCEQYVRSPYTFGQGTKLDIK
notes: Tested as full IgG
B14: LAG3-1E09_FR_1A06 (antibody, V domains shown)
VH: B1 VH
VL: DIQMTQSPGTLSMSPGEKATLSCRASQTVTTNLAWYQQKSGQAPRLLIYDASTRATGVPDRFSGSGSGTDFTLTISRLEPEDFAVYYCQQYGSSPYTFGQGTKLDIK
notes: Tested as full IgG
B15: LAG3-1E09_LS_1A10 (antibody, V domains shown)
VH: B1 VH with G10D, V37I
VL: not shown
notes: Tested as full IgG
B16: LAG3-1E09_AM_1B03 (antibody, V domains shown)
VH: B1 VH with G10D, K13Q, S30N, V37I
VL: DIQMTQSPSSLSASVGDRVTMTCQASQDVSNYLNWYQQKPGKAPKLLIYDASNLEIGVPSRFSGSGSGTDFTFTISSLQPEDTATYYCQQYDHLPPYTFGQGTKLEIK
notes: Tested as full IgG
B17: LAG3-1E09_LS_1H04 (antibody, V domains shown)
VH: B1 VH with G10D, V37I
VL: DIQMTQSPSSLSASAGDRVTITCQASQDIRNSLSWYQQKPGKAPKLLIYDASNLETGVPSRFSGSGSGTYFTFTISSLQPEDFATYYCQQYDNVPVTFGGGTKLEIK
notes: Tested as full IgG
B18: LAG3-1E09_AM_1H07 (antibody, V domains shown)
VH: B1 VH with G10D, K13Q, S30N
VL: B7 VL with R24Q, S28D, Y31N, R39K, D50E, N53S, T56S, T67S, S76N
notes: Tested as full IgG
B19: LAG3-1E09_AM_1F09 (antibody, V domains shown)
VH: B1 VH with G10D, S28N, V37I
VL: B2 VL with S30R, N34G, N53T, A72T, T74A, D92Y, I96Y, R103K, D105E
notes: Tested as full IgG

target: T1, recombinant human LAG-3-his …; assay: scFv phage ELISA on coated antigen, A490

binding result | Binder
binds | B1
binds | B2

target: T2, mouse LAG-3 overexpressed on HEK293E …; assay: flow cytometry, HEK293E cells overexpressing LAG-3, antibody 2 µg/ml
Protocol: (§1) After that, the cells were washed three times with PBS containing 2% FBS and then subjected to the reaction for 30 minutes at 4° C. with anti-human IgG antibody (#FI-3000, Vectorlabs) linked with FITC fluorescent. The cells were washed by the same washing process as above followed by suspension in 0.2 ml PBS containing 2% FBS. The cells were then analyzed by FACSCanto II flow cytometer.

binding result | Binder
binds | B3
binds | B1
binds | B4
binds | B5
binds | B6
binds | B7
binds | B8
binds | B9
binds | B10
binds | B11
binds | B12

target: T3, human LAG-3 overexpressed on cells; assay: as above
Protocol: as §1

binding result | Binder
binds | B1
binds | B13
binds | B14
binds | B2
binds | B15

target: T3, human LAG-3 overexpressed on cells; assay: cell-based or functional assay

EC50 (µg/ml), LAG3/MHC class II Blockade bioassay | Binder
0.655 µg/mL | B3
1.82 µg/mL | B16
0.284 µg/mL | B17
0.482 µg/mL | B4
0.448 µg/mL | B18
0.485 µg/mL | B5
1.06 µg/mL | B6
0.246 µg/mL | B7
0.811 µg/mL | B8
0.606 µg/mL | B9
1.51 µg/mL | B10
0.488 µg/mL | B19
0.151 µg/mL | B11
0.242 µg/mL | B12

target: T2, mouse LAG-3 overexpressed on HEK293E …; assay: flow cytometry, HEK293E cells overexpressing mouse LAG-3
Protocol: as §1

binding result | Binder
no binding (tested: 2 µg/ml) | B16
no binding (tested: 2 µg/ml) | B17
no binding (tested: 2 µg/ml) | B13
no binding (tested: 2 µg/ml) | B14
no binding (tested: 2 µg/ml) | B18
no binding (tested: 2 µg/ml) | B2
no binding (tested: 2 µg/ml) | B15
no binding (tested: 2 µg/ml) | B19
